From US20100036106 come the findings set out here.

This data set deals with Glutathione S-transferase (GST) (Schistosoma japonicum) (UniProt P08515). Nature of the data set: FP.
Sequence of Glutathione S-transferase (GST) (Schistosoma japonicum) (P08515 2-218): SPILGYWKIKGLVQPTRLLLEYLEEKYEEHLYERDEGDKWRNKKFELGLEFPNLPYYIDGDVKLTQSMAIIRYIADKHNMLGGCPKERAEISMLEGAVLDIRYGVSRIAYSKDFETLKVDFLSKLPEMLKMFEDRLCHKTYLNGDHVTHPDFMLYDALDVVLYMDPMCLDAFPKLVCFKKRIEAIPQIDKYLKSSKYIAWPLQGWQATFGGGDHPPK

For the sequence “GGUAGAUACGAUGGANNNNNNNNNNNNNNNNNNNNNNNNNNNNNNCAUGACGCGCAGCCAA [18th RNA pool]”, the Kd (usually the concentration at which binding is half-saturated) stood at 400 nM.
